# ± gives the uncertainty stated by the source.
# B1: library; numbered along this chain (parent)
# chain: MEVVDPQQLGMFTEGELMSVGMDTFIHRIDSTEVIYQPRRKRAKLIGKYLMGDLLGEGSYGKVKEVLDSETLCRRAVKILKKKKLRRIPNGEANVKKEIQLLRRLRHKNVIQLVDVLYNEEKQKMYMVMEYCVCGMQEMLDSVPEKRFPVCQAHGYFCQLIDGLEYLHSQGIVHKDIKPGNLLLTTGGTLKISDLGVAEALHPFAADDTCRTSQGSPAFQPPEIANGLDTFSGFKVDIWSAGVTLYNITTGLYPFEGDNIYKLFENIGKGSYAIPGDCGPPLSDLLKGMLEYEPAKRFSIRQIRQHSWFRKKHPPAEAPVPIPPSPDTKDRWRSMTVVPYLEDLHGADEDEDLFDIEDDIIYTQDFTVPGQVPEEEASHNGQRRGLPKAVCMNGTEAAQLSTKSRAEGRAPNPARKACSASSKIRRLSACKQQ
# Variants of: B1
# Experiment: STK11 functional score (HeLa growth suppression), rescaled enrichment; synonymous median = 1, nonsense median = 0 (normalised score)
# Details: with HeLa; variant type: missense
# Description: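 Deep mutational scan (TileSeq/POPCode codon randomisation) of full-length codon-optimised STK11 cDNA integrated at a Bxb1 landing pad (AAVS1) in HeLa cells. Restoring functional STK11 suppresses HeLa proliferation. Variant frequencies were measured by NGS before and after about two weeks of growth. The error-corrected enrichment log-ratio was rescaled so that synonymous median = 1 and nonsense median = 0, scores above 1 were compressed, and codon-level and three biological replicate scores were combined; error is the bootstrapped standard error. Scale: synonymous median = 1, nonsense median = 0; below 0.5 = damaging.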
row,Variant,STK11 functional score
1,P369R,1.44 ± 0.18
2,A406V,1.52 ± 0.28
3,R40F,1.3 ± 0.15
4,V116P,0.975 ± 0.1
5,E375R,1.46 ± 0.21
6,Y292G,1.45 ± 0.21
7,R384G,1.28 ± 0.1
8,I29G,1.16 ± 0.8
9,T395M,1.05 ± 0.66
10,L140A,0.543 ± 0.27
11,A273R,1.13 ± 0.38
12,N247C,1.15 ± 0.4
13,D284F,0.579 ± 0.099
14,Q37L,1.15 ± 0.3
15,K82R,1.66 ± 0.4
16,K262P,1.56 ± 0.25
17,A225P,1.22 ± 0.62
18,V150A,0.104 ± 0.15
19,E317Y,1.04 ± 0.4
20,N412V,1.33 ± 0.2
21,P38R,0.891 ± 0.086
22,F255C,0.921 ± 0.12
23,R75I,1.18 ± 0.099
24,L45N,0.985 ± 0.86

row,Variant,STK11 functional score
1,V143L,1.17 ± 0.15
2,A318L,1.58 ± 0.18
3,Q302F,1.14 ± 0.5
4,G188I,1.04 ± 0.29
5,Y126G,0.669 ± 0.13
6,T249N,0.652 ± 0.27
7,R40C,1.39 ± 0.074
8,V372M,0.74 ± 0.69
9,V320M,1.47 ± 0.53
10,A398E,1.55 ± 0.25
11,T402Y,1.43 ± 0.37
12,S193K,0.0789 ± 0.12
13,M125R,0.355 ± 0.099
14,G251F,0.127 ± 0.13
15,K235L,1.24 ± 0.18
16,Y131M,-0.137 ± 0.13
17,L160V,1.26 ± 0.14
18,S240T,1.07 ± 0.16
19,E256A,0.686 ± 0.64
20,Q382S,1.5 ± 0.19
21,V236A,1.56 ± 0.4
22,R415C,1.25 ± 0.14
23,L101W,-0.0513 ± 0.12
24,D284R,1.55 ± 0.36

row,Variant,STK11 functional score
1,Q220L,0.714 ± 0.12
2,K388M,1.39 ± 0.2
3,M18I,0.652 ± 0.32
4,A200R,0.878 ± 0.12
5,N119K,1.18 ± 0.15
6,A318S,1.33 ± 0.28
7,Q112I,1.52 ± 0.19
8,L54F,0.99 ± 0.078
9,T186F,1.33 ± 0.17
10,M139R,0.918 ± 0.37
11,I260F,0.763 ± 0.1
12,Y340S,1.3 ± 0.28
13,A398R,1.42 ± 0.24
14,P222W,0.686 ± 0.36
15,M51Q,1.66 ± 0.16
16,T402K,1.3 ± 0.1
17,Y156M,1.69 ± 0.25
18,V368E,1.42 ± 0.22
19,V243H,-0.00535 ± 0.12
20,L45T,1.27 ± 0.78
21,I260D,1.16 ± 0.21
22,N94V,0.637 ± 0.13
23,N393P,1.59 ± 0.23
24,H202V,1.27 ± 0.26

row,Variant,STK11 functional score
1,K84P,1.52 ± 0.45
2,F255I,1.36 ± 0.38
3,Q432Y,1.63 ± 0.28
4,E145S,1.45 ± 0.096
5,I192F,1.13 ± 0.53
6,H174V,0.69 ± 0.11
7,L167N,0.605 ± 0.12
8,T395A,0.877 ± 0.44
9,F148A,0.105 ± 0.081
10,I161Y,0.129 ± 0.091
11,L344A,1.51 ± 0.15
12,I46C,1.17 ± 0.2
13,D162H,0.6 ± 0.53
14,H174N,0.317 ± 0.17
15,L245A,0.101 ± 0.099
16,A198H,1.54 ± 0.13
17,P89Y,0.644 ± 0.31
18,A406M,0.606 ± 0.2
19,E349R,1.37 ± 0.15
20,A295G,1.37 ± 0.68
21,Y156A,0.114 ± 0.64
22,I303M,0.518 ± 0.53
23,I29H,0.0412 ± 0.14
24,C134M,0.248 ± 0.08

row,Variant,STK11 functional score
1,L344G,0.8 ± 0.41
2,I356A,1.5 ± 0.25
3,H306Y,0.195 ± 0.17
4,I99M,1.07 ± 0.36
5,T395S,0.942 ± 0.26
6,R331V,1.13 ± 0.57
7,D258G,1.47 ± 0.15
8,G270R,1.43 ± 0.39
9,K175R,1.47 ± 0.16
10,R415M,1.4 ± 0.16
11,I172R,0.401 ± 0.096
12,E57T,1.69 ± 0.29
13,F255L,0.5 ± 0.21
14,L102I,1.26 ± 0.2
15,T250R,0.727 ± 0.25
16,T13C,1.59 ± 0.25
17,V368P,1.46 ± 0.19
18,G381P,1.61 ± 0.28
19,F231P,0.959 ± 0.34
20,L17T,1.62 ± 0.18
21,A225R,1.07 ± 0.44
22,A153E,0.243 ± 0.093
23,P387L,1.02 ± 0.3
24,Y49V,0.956 ± 0.099

row,Variant,STK11 functional score
1,N226H,0.561 ± 0.47
2,M335S,1.53 ± 0.18
3,M289C,0.75 ± 0.1
4,P339Y,1.21 ± 0.39
5,L341Q,1.59 ± 0.17
6,G171A,1.18 ± 0.4
7,D327W,1.57 ± 0.12
8,E317C,1.49 ± 0.17
9,H168S,0.83 ± 0.3
10,L184S,0.61 ± 0.13
11,M129F,0.993 ± 0.47
12,D176N,-0.273 ± 0.098
13,S422G,1.49 ± 0.26
14,Q100G,1.17 ± 0.14
15,M129N,0.571 ± 0.13
16,Y118H,1.14 ± 0.64
17,M129S,0.731 ± 0.16
18,P217Y,1.45 ± 0.31
19,A206N,1.66 ± 0.2
20,T402I,1.25 ± 0.2
21,L140H,-0.0286 ± 0.083
22,S19W,1.43 ± 0.4
23,R383M,1.59 ± 0.31
24,K403Q,1.61 ± 0.37

row,Variant,STK11 functional score
1,D343A,1.47 ± 0.29
2,Y261V,1.22 ± 0.4
3,G268I,1.65 ± 0.17
4,L386A,1.6 ± 0.23
5,Q382L,1.34 ± 0.28
6,N119R,1.26 ± 0.17
7,C73W,0.426 ± 0.11
8,T32A,1.66 ± 0.13
9,S59H,1.09 ± 0.58
10,T244Y,0.127 ± 0.082
11,C134E,1.45 ± 0.2
12,N266C,0.945 ± 0.51
13,D141G,1.2 ± 0.36
14,E92N,1.39 ± 0.11
15,S404K,1.56 ± 0.26
16,Q399G,1.51 ± 0.28
17,I248H,-0.139 ± 0.09
18,G268F,1.16 ± 0.24
19,A200M,1.65 ± 0.14
20,S69Q,0.0756 ± 0.11
21,N94I,1.14 ± 0.21
22,R40K,1 ± 0.48
23,K82F,0.966 ± 0.26
